Assays:
Experiment in all cases: pulldown
Conditions in all cases: 20 nM protein, 1.5 uM RNA pool; 20 mM HEPES pH 7.8, 70 mM KCl, 10 mM NaCl, 10% glycerol, 2 mM DTT, 0.1 ug/uL BSA; 30 min, 4 C
RBM45 (Homo sapiens) = biological target: T1, RBM45 (Homo sapiens) (UniProt Q8IUH3)
T1 sequence: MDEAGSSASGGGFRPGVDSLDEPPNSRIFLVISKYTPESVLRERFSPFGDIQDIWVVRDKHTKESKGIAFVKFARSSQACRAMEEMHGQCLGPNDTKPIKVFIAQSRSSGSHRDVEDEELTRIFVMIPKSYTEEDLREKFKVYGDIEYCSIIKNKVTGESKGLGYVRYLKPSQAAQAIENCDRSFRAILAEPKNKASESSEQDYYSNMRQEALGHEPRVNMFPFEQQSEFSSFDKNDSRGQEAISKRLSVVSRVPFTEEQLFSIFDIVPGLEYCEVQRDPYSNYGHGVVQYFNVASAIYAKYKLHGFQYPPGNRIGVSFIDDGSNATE

[1] = biological target: T2, U2B'' (Arabidopsis thaliana) (UniProt O22922)
T2 sequence: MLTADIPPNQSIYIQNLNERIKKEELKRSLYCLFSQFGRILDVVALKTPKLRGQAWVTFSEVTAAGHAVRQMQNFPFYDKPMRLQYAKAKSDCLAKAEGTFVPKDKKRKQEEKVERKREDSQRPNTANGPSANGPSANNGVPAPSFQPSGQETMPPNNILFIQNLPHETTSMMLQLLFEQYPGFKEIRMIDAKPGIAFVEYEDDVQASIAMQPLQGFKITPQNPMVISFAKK

PUF60 (Homo sapiens) = biological target: T3, PUF60 (Homo sapiens) (UniProt Q9UHX1)
T3 sequence: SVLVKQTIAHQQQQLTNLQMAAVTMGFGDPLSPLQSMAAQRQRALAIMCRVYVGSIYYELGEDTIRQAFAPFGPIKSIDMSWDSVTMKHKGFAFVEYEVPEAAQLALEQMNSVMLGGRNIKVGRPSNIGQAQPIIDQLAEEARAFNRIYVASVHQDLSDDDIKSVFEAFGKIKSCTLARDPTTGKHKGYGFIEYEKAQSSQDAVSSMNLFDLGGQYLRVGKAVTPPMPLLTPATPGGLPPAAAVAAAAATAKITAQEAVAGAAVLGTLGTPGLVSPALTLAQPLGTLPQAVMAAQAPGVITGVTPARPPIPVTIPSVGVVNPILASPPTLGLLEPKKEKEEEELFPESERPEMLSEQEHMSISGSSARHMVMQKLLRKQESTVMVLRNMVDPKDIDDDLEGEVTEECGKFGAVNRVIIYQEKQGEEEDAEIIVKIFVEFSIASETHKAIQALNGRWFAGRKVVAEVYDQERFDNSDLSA

TRNAU1AP (Homo sapiens) = biological target: T4, TRNAU1AP (Homo sapiens) (UniProt Q9NX07)
T4 sequence: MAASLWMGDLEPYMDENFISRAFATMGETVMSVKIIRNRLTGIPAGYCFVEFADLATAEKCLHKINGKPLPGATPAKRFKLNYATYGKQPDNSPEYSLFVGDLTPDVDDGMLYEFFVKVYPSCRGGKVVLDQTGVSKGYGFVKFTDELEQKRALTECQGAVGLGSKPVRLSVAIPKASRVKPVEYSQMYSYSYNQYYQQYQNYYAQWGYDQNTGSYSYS

[2] = biological target: T5, cpb-2 (Caenorhabditis elegans) (UniProt Q18317)
T5 sequence: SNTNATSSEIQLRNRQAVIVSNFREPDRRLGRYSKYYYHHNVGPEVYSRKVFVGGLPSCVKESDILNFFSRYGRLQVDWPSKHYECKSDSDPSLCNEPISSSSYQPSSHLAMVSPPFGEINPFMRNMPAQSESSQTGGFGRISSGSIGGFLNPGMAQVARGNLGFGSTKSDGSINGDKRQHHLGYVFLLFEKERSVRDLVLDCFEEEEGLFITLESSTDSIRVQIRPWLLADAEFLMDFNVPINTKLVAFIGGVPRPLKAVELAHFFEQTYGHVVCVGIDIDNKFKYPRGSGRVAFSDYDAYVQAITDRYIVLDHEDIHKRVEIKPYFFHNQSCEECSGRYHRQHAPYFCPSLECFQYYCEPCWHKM

[3] = biological target: T6, tdp-1 (Caenorhabditis elegans) (UniProt D0VWM8)
T6 sequence: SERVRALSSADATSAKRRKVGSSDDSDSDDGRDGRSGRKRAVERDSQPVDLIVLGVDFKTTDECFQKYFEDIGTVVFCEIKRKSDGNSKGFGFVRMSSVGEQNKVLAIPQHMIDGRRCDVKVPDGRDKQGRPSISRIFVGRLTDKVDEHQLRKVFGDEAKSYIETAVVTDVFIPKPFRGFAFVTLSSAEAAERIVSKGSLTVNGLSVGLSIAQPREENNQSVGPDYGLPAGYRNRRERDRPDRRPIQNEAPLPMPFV

ELAVL2 (Homo sapiens) = ELAVL2 (Homo sapiens) (UniProt Q12926)
[4] = biological target: T7, PFI0820c (Plasmodium falciparum) (UniProt Q8I2Y5)
T7 sequence: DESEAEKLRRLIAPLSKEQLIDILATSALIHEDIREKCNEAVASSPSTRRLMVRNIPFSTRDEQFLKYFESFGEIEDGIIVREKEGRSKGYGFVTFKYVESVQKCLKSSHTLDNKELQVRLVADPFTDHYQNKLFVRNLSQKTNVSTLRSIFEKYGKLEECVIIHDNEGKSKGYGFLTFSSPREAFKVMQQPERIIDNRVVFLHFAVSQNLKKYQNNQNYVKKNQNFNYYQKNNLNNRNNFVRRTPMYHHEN

[5] = biological target: T8, ENSXETG00000023721 (Xenopus tropicalis) (UniProt A0A803KLF2)
T8 sequence: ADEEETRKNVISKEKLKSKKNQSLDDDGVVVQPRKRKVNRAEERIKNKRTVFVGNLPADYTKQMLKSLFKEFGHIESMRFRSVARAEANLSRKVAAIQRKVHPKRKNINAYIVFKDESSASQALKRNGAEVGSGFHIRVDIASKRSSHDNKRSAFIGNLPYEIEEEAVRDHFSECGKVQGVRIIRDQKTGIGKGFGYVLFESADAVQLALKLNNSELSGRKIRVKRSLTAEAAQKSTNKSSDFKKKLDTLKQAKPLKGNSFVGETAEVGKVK

ELAVL2 (Homo sapiens), sequence (Q12926 1-189): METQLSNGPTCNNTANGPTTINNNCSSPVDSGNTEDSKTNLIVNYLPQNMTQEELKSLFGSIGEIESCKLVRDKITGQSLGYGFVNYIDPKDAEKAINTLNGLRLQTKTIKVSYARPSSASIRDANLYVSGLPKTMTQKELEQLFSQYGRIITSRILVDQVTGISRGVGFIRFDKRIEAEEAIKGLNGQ

In the case of GACAGA [RNAcompete motif RNCMPT00805], the binding signal (z-score (mean of top ten 7-mers)) (RBM45 (Homo sapiens)) is reported as 12.2.
Substance UUGCACA [RNAcompete motif RNCMPT01660] has a binding signal (z-score (mean of top ten 7-mers)) [1] of 14.2.
For UUUUUUU [RNAcompete motif RNCMPT00820], the binding signal (z-score (mean of top ten 7-mers)) (PUF60 (Homo sapiens)) was 12.
Substance AAUUU [RNAcompete motif RNCMPT00813] has a binding signal (z-score (mean of top ten 7-mers)) (TRNAU1AP (Homo sapiens)) of 7.72.
For UUUNUA [RNAcompete motif RNCMPT00794], the binding signal (z-score (mean of top ten 7-mers)) [2] was 14.9.
In the case of GAGAGA [RNAcompete motif RNCMPT00816], the binding signal (z-score (mean of top ten 7-mers)) [3] is reported as 11.6.
With UUAUUUU [RNAcompete motif RNCMPT00814] the binding signal (z-score (mean of top ten 7-mers)) (ELAVL2 (Homo sapiens)) was 15.1.
With GAGAGAA [RNAcompete motif RNCMPT00793] the binding signal (z-score (mean of top ten 7-mers)) [4] was 6.18.
Work on GAACG [RNAcompete motif RNCMPT00828] yielded a binding signal (z-score (mean of top ten 7-mers)) [5] of 10.8.
